B1: Arf1 expressed in HEK293T cells (human Arf1/pcDNA3.1) (natural protein)
chain: not shown
B2: Arf1-HA expressed in HEK293T cells (natural protein)
chain: not shown
B3: Arf1-GFP expressed in HEK293T cells (human Arf1/pEGFPN1) (natural protein)
chain: not shown

Target: T1, GST-[1-313]GGA3 (UniProt Q9NZ52 1-313)
T1 sequence (looked up): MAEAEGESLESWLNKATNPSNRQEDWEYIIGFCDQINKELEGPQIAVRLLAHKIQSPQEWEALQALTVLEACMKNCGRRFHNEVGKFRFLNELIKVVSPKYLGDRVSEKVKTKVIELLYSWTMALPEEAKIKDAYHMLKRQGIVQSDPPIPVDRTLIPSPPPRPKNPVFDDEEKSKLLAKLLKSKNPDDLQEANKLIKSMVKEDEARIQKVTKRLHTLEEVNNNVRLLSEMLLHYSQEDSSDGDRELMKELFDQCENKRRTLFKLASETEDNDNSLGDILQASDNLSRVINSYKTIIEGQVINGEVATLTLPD
Assay: pull-down

Row | Binder | percent of total Arf precipitated with GST-[1-313]GGA3
1 | B1 | < 0.15 % of the total
2 | B2 | < 0.15 % of the total
3 | B3 | > 0.3 % of the total

Reference: article PMC2874613 (Traffic (Copenhagen, Denmark), 2010)
